# Source: the supplement of paper PMC10065799, “High-throughput profiling of sequence recognition by tyrosine kinases and SH2 domains using bacterial peptide display” (eLife, 2023)
# Key:
# [1] = system: AncSZ; experiment: phosphorylation enrichment, bacterial display (enrichment ratio); higher = better substrate or ligand; peptides without Tyr show the background
# [2] = biological target: EPHB1 (UniProt P54762); experiment: as above
# [3] = biological target: EPHB2 (UniProt P29323); experiment: as above
# [4] = biological target: FGFR1 (UniProt P11362); experiment: as above
# FGFR1, sequence (P11362 whole entry, looked up): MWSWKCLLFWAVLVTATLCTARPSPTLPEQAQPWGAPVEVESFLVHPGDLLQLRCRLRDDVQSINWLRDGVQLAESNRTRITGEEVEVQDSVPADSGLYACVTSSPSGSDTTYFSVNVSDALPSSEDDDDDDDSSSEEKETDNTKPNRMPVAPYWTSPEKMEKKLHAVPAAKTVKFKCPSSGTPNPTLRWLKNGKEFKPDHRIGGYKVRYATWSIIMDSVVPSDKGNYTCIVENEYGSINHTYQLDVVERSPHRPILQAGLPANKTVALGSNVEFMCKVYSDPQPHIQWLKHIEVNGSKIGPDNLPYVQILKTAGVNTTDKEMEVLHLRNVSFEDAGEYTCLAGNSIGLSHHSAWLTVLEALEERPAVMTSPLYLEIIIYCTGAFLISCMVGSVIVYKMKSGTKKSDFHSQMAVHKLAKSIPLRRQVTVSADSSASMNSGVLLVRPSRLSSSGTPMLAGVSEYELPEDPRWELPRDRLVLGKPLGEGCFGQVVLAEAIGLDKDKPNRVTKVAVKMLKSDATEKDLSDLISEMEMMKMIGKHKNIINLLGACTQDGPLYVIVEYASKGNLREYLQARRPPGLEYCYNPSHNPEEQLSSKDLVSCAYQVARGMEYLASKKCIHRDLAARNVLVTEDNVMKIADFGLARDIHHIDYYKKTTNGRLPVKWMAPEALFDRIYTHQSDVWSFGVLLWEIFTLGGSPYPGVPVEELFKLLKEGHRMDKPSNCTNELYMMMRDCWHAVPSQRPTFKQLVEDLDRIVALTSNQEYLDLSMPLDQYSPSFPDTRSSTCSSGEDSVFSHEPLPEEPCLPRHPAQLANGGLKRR
# [5] = biological target: FGFR3 (UniProt P22607); experiment: as above
# [6] = system: Fer (mouse); experiment: as above
# [7] = biological target: Fes (UniProt P07332); experiment: as above
# Fes, sequence (P07332 whole entry, looked up): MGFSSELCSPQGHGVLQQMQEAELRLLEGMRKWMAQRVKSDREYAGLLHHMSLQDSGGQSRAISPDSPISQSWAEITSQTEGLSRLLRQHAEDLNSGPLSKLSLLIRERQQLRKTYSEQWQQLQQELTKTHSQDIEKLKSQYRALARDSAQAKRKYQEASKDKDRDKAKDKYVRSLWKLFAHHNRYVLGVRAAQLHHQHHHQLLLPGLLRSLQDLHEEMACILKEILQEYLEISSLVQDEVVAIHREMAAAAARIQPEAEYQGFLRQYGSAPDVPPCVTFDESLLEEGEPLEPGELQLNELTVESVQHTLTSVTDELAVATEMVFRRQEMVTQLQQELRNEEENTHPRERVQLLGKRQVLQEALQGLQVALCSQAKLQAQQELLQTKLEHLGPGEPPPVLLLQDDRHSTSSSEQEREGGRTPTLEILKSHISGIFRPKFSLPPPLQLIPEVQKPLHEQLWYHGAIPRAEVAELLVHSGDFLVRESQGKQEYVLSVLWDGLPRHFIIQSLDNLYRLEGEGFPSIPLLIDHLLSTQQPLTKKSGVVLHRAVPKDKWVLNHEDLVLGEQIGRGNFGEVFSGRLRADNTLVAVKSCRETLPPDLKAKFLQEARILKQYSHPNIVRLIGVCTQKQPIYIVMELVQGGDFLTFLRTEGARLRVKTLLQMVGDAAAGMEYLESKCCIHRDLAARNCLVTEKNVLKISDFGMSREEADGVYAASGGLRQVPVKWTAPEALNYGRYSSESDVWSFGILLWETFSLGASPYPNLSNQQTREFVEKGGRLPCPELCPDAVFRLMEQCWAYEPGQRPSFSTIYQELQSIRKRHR
# [8] = biological target: Fyn (UniProt P06241); experiment: as above
# Fyn, sequence (P06241 whole entry, looked up): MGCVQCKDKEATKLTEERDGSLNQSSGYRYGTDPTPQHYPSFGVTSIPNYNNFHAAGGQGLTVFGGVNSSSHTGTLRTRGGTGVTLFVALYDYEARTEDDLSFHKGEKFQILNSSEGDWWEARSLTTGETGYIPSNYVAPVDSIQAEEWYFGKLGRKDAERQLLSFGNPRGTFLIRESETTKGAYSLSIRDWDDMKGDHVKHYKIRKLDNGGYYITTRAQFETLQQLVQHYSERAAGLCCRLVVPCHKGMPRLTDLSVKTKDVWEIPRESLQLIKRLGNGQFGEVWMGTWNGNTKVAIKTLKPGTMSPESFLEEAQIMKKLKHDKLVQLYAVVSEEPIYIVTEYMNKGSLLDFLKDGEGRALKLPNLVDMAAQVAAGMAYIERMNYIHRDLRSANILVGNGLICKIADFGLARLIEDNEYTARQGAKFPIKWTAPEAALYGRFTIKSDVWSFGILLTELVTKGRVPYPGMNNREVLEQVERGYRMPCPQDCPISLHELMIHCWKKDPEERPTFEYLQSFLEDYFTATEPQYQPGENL
# [9] = biological target: Hck (UniProt P08631); experiment: as above
# Hck, sequence (P08631 whole entry, looked up): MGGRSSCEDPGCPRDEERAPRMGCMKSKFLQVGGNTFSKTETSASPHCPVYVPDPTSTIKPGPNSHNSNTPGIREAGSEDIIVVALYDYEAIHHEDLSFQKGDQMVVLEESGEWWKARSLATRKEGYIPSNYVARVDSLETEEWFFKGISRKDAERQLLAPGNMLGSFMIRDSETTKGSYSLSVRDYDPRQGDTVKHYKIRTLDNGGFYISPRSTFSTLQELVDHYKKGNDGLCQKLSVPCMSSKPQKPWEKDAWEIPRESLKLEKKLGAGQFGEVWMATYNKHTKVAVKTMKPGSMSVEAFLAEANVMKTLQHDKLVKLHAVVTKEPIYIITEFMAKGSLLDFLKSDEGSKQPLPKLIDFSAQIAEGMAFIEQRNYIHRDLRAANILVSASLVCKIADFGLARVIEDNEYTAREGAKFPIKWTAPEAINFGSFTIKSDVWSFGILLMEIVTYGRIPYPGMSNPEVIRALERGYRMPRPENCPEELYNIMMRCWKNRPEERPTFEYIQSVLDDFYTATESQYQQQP
# [10] = biological target: Jak2 (UniProt O60674); experiment: as above
# Jak2, sequence (O60674 whole entry, looked up): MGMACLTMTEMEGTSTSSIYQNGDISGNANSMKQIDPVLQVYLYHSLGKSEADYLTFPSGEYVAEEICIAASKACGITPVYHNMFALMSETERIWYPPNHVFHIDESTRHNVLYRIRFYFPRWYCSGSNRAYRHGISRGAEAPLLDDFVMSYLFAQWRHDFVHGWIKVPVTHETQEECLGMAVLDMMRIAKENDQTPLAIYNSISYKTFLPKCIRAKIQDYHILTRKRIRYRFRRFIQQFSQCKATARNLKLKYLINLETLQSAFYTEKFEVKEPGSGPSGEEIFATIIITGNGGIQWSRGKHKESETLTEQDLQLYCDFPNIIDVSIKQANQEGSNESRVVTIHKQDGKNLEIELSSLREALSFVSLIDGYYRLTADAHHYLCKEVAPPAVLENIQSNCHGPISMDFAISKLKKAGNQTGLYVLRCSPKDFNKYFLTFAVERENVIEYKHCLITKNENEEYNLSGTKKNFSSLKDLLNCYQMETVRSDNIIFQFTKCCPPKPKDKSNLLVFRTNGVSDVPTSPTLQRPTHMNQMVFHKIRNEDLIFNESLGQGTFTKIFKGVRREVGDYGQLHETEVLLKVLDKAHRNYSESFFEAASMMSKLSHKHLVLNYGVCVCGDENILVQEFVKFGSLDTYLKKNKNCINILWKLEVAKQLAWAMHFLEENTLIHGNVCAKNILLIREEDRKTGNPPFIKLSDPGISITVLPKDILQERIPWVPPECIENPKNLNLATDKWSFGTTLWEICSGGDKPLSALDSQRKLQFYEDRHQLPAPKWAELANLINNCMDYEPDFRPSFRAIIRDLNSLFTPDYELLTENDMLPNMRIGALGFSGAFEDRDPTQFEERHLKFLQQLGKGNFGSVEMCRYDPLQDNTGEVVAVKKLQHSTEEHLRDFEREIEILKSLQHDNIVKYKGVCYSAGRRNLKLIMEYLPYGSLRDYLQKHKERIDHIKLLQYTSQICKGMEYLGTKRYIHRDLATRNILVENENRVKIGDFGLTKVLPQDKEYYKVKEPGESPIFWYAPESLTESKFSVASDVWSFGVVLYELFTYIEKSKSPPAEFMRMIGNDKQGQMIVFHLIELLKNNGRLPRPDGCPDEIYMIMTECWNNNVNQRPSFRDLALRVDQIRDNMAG
# [11] = biological target: MERTK (UniProt Q12866); experiment: as above
# MERTK, sequence (Q12866 whole entry, looked up): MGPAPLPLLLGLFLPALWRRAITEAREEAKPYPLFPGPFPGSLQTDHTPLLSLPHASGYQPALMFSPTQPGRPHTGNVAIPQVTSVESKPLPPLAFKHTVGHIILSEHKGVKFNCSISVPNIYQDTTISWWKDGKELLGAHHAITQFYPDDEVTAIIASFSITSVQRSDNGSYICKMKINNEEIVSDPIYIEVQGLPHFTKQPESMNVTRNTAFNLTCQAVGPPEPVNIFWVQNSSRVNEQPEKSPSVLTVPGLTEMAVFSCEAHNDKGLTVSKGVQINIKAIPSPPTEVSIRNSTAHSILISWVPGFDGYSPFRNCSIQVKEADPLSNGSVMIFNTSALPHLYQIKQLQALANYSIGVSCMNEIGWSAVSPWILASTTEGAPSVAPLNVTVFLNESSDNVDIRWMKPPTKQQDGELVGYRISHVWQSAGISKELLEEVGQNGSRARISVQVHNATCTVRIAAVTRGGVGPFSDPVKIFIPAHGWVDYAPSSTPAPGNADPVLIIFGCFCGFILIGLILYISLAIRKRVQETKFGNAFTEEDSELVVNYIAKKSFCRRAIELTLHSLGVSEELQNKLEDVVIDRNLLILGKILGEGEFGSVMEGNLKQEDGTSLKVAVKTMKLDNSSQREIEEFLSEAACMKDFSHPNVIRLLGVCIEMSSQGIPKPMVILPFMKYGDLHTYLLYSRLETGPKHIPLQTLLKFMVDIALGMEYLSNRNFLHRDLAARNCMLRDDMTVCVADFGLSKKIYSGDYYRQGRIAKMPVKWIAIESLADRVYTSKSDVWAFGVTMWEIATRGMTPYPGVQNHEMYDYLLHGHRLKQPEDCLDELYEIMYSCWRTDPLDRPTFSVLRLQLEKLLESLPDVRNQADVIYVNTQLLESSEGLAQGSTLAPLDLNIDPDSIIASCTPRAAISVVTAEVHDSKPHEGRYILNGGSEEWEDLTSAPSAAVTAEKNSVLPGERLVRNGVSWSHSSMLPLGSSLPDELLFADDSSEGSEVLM
# [12] = system: c-Abl (mouse); experiment: as above
# [13] = system: c-Src; experiment: as above
# [14] = biological target: Grb2 SH2 (UniProt P62993); experiment: SH2 binding enrichment of the phosphorylated peptide, bacterial display (enrichment ratio); higher = better substrate or ligand; peptides without Tyr show the background
# [15] = biological target: SHP2-C SH2; experiment: as above
# [16] = biological target: c-Src SH2; experiment: as above
# 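Throughout, for SH2 binding enrichment of the phosphorylated peptide, bacterial display: peptide library displayed on the E. coli surface as eCPX fusions, selected cells deep-sequenced, score is each peptide's frequency after selection divided by its frequency in the input.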
# 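Throughout, for phosphorylation enrichment, bacterial display: 11-residue human phosphosite peptides and single-mutation variants displayed on the E. coli surface, counted by deep sequencing, each peptide's frequency after selection divided by its frequency in the unselected input library; frequency after pTyr selection over input frequency; kinase dosed for 20-30% of maximal phosphorylation in three min.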
Sequence,SH2 binding enrichment [14],SH2 binding enrichment [15],SH2 binding enrichment [16],phosphorylation enrichment [1],phosphorylation enrichment [2],phosphorylation enrichment [3],phosphorylation enrichment [4],phosphorylation enrichment [5],phosphorylation enrichment [6],phosphorylation enrichment [7],phosphorylation enrichment [8],phosphorylation enrichment [9],phosphorylation enrichment [10],phosphorylation enrichment [11],phosphorylation enrichment [12],phosphorylation enrichment [13]
EYFDGYWGYSV [ITGA2B_Y265],0.999,0.578,1.94,3.58,3.88,9.3,14.6,13.7,1.4,1.42,6.24,5.55,12.3,2.87,4.7,7.52
IEPVIYVVQRR [ANOS1_Y217],0.512,0.236,0.255,1.37,0.209,0.486,0.368,0.475,0.271,1.23,0.304,0.315,1.1,0.531,0.58,0.356
WGTAEYDSVVA [MAP1A_Y1883],0.893,0.639,1,1.4,0.685,0.86,0.583,0.817,1.57,1.24,0.66,1.16,1.18,0.456,0.703,0.819
FGGLRYGFGGL [KRTAP20-2_Y13_V17G_YF],0.903,0.762,0.601,0.739,0.445,0.448,0.672,0.536,0.431,1.08,0.389,0.465,0.664,0.37,0.553,0.379
ANNPLYKEVTS [ITGB3_Y773_A776V],1.07,0.563,0.733,0.695,0.506,0.409,0.495,0.58,0.486,0.797,0.428,0.551,0.691,0.481,0.584,0.467
QLHEHYKIHKE [NSMAF_Y626],0.985,0.747,0.637,0.748,0.455,0.597,0.311,0.772,0.563,0.95,0.697,0.526,0.641,0.878,0.623,0.777
KVPAIYGVGTR [CPS1_Y162_D165G],0.948,0.615,0.699,0.47,0.424,0.391,0.362,0.402,0.377,0.576,2.27,5.68,0.562,0.527,0.923,2.44
LPEHPYHSRPR [NDUFA8_Y142_N140H],0.958,0.538,0.704,1.97,0.861,1.57,1.02,2.71,1.03,3.08,2.04,1.9,0.823,1.17,0.828,1.27
FSLIHYAGIVD [MYH7_Y582],1.45,19,5.22,0.997,0.503,0.648,0.405,0.714,0.387,0.963,0.408,0.458,0.765,0.339,0.609,0.343
HKANEYYPVVI [ADAMTS18_Y764_L769I],0.665,1.06,0.587,2.1,1.01,0.599,17.4,13.1,1.26,0.746,0.676,0.723,2.19,0.558,0.61,0.427
SPPILYSFFLN [FCRL6_Y239_D244N_YF],1.29,1.28,0.763,1.08,3.03,2.36,1.41,1.38,5.01,1.17,2.46,3.03,1.05,10.5,2.75,3.41
IHHIDYFKETT [FGFR1_Y653_K656E_YF],0.832,0.767,0.447,0.605,0.456,0.415,0.443,0.567,0.451,0.778,0.555,0.446,0.692,0.427,0.445,0.489
NMSRIYSTAKV [ACE_Y151],0.901,1.25,0.545,0.573,0.342,0.493,0.451,0.448,0.416,0.563,0.477,0.528,0.535,0.417,0.545,0.477
FQNSLYAPDYS [FAM92A_Y226_R222Q],1.2,1.17,0.628,1.1,2.48,2.45,0.781,0.926,1.6,1.07,1.07,1.46,0.945,5.57,0.618,1.42
KMATAYIRSMS [BCO1_Y264_R267S],1.08,0.59,0.464,0.564,0.409,0.374,0.397,0.369,0.337,0.6,0.417,0.388,0.518,0.396,0.516,0.385
VYPATYHPDHW [EFCAB12_Y544],1.03,0.635,0.53,0.554,0.423,0.385,0.564,0.828,0.419,0.662,0.465,0.689,0.639,0.296,0.526,0.436
MAYDRYAAICS [OR8H2_Y123_H120Y],0.852,0.956,2.79,0.94,0.699,0.828,0.526,0.687,0.597,1.35,0.526,0.76,1.04,0.835,0.839,0.661
SDGGCYEQLFV [MC4R_Y41],0.853,0.745,0.68,1.69,0.764,0.74,0.663,0.837,9.7,1.09,1.32,2.14,0.991,0.806,0.871,1.76
APVEDYGGGGG [B4GALT6_Y382_I379V],0.764,0.768,0.425,0.822,0.503,0.552,0.473,0.641,0.409,0.882,0.496,0.452,0.62,0.418,0.481,0.392
CNRADYSKLAS [GNE_Y22_P27S],0.874,0.625,0.938,1.04,0.393,0.572,0.367,0.47,0.398,0.95,0.377,0.376,0.621,0.441,0.453,0.369
RIDPDYMGRVR [IGSF9_Y81_V82M],1.03,0.629,0.577,0.649,0.35,0.367,0.344,0.656,0.4,0.572,0.487,0.369,0.643,0.442,0.585,0.466
QRIHNYFEHRF [HCN4_Y554_D553N_YF],1.16,1.22,1.31,0.647,0.543,0.443,0.719,0.374,0.343,0.692,0.441,0.409,0.34,0.567,0.34,0.493
YKEDPYLVVNP [MCM6_Y810_E806K],0.829,0.538,0.58,1.19,0.405,0.515,1.24,1.09,0.46,1.11,1.04,0.591,1.03,0.455,0.662,1.74

# Further lines, with some results ahead:
SH2 binding enrichment [14],SH2 binding enrichment [15],SH2 binding enrichment [16],Sequence,phosphorylation enrichment [1],phosphorylation enrichment [2],phosphorylation enrichment [3],phosphorylation enrichment [4],phosphorylation enrichment [5],phosphorylation enrichment [6],phosphorylation enrichment [7],phosphorylation enrichment [8],phosphorylation enrichment [9],phosphorylation enrichment [10],phosphorylation enrichment [11],phosphorylation enrichment [12],phosphorylation enrichment [13]
1.04,0.751,0.513,NHFKIHNLCAE [PTEN_Y68_Y68H_YF],0.58,0.384,0.374,0.428,0.441,0.384,0.642,0.466,0.394,0.459,0.437,0.367,0.432
0.833,1,1.46,VFLGAYDHFLP [SLC22A5_Y486_R488H_YF],1.36,1.8,3.32,0.611,0.811,4.81,0.955,3.08,2.73,0.726,6.29,1.06,3.29
0.782,0.794,0.495,SYSGEYGSGGG [ZG16_Y30_G32S],0.763,0.454,0.429,0.419,0.512,0.462,0.696,0.417,0.534,0.727,0.53,0.596,0.545
0.793,0.613,0.371,SVTCTYSPARN [TP53_Y126_L130R],1.22,0.576,0.654,0.53,0.756,0.554,1.37,0.489,0.56,1.06,0.449,0.84,0.555
0.892,0.873,0.518,SLALFYRNVFH [RBL1_Y792_K794N_YF],0.962,0.573,1.02,0.447,0.649,0.497,1.19,0.49,0.5,1.02,0.422,0.688,0.409
0.765,0.614,1.78,SVVVPYELPEV [TP53_Y220_P222L],1.65,0.643,0.659,0.553,0.723,0.581,1.29,0.503,0.58,1.09,0.47,0.848,0.545
0.749,1.15,0.673,FADIAYSFRHG [PAH_Y166_N167S_YF],0.62,0.344,0.383,0.313,0.491,0.393,0.674,0.443,0.44,0.422,0.33,0.463,0.64
0.881,0.714,0.715,ERSMSYSDESR [SMG1_Y143],0.887,0.541,0.541,0.537,0.63,0.485,0.912,0.463,0.456,0.876,0.489,0.905,0.538
0.691,0.572,0.39,SNSATYSGSVA [PDLIM5_Y382],0.748,0.347,0.497,0.432,0.483,0.392,0.624,0.561,0.56,0.48,0.516,0.576,0.498
0.821,0.842,0.561,RQQEDYLLYKQ [RARRES1_Y159],1.32,0.793,0.823,0.743,0.86,1.1,1.65,0.547,0.969,2.46,0.631,1.39,0.941
